These results are taken from patent US20150087812A1 (Janssen / Centocor, published 2015).

Numbering of substitutions follows the chain as printed.

Assay [1] addresses T1, recombinant human ATX beta isoform with N-terminal purification tag (human, UniProt Q13822 49-863). Nature of the assay: ELISA, Fab-His captured by anti-Fd, 5 nM biotinylated human ATX beta. On the procedure: (§1) Fabs were captured on black MaxiSorp plates (Nunc, Cat. No. 437111) coated with 1 μg/ml sheep anti-human Fd (CH1) antibody (The Binding Site, Cat. No. PC075). Plates were washed and biotinylated human ATX was added to the captured Fabs at 5 nM. Incubation was carried out for 1 hour at room temperature with gentle shaking. Plates were washed, SA-HRP (Invitrogen, Cat. No. 43-4323) was added and chemiluminescent detection carried out.
(§2) Clones with binding above background were sequenced and unique clones identified. […] These clones were identified with binding signal to human ATX at least 6-fold above the background. Table 3 lists the identifier for VH and VL (Peptide ID) and the combination of both (Fab ID) sorted by the Fab ELISA binding data.
Background: An ELISA detects its analyte on a solid surface through an enzyme-linked reagent.

Assay [2] has as its target T1, recombinant human ATX beta isoform with …. Nature of the assay: Fab-His ELISA. On the procedure: as §1, §2

B1: Fab F105 (VH H97, VL L93) (Fab, V domains shown)
VH: QVQLVQSGAEVKKPGSSVKVSCKASGGTFSSYGISWVRQAPGQGLEWMGGIIPIFGTANYAQKFQGRVTITADESTSTAYMELSSLRSEDTAVYYCARGDDNEVIYHLDYWGQGTLVTVSS
VL: EIVLTQSPGTLSLSPGERATLSCRASQSVAKSDLAWYQQKPGQAPRLLIYTASSRATGIPDRFSGSGSGTDFTLTISRLEPEDFAVYYCQQDYGYPLTFGQGTKVEIK
notes: Soluble Fab-His
As to B1, the “Fab Binding” value in assay [1] was 970000 relative chemiluminescence units. In assay [2], the fold above background is at least 6 fold.

B2: Fab F135 (VH H138, VL L118) (Fab, V domains shown)
VH: QVQLVQSGAEVKKPGSSVKVSCKASGGTFSSYAISWVRQAPGQGLEWMGGIIPIFGTANYAQKFQGRVTITADESTSTAYMELSSLRSEDTAVYYCARDFLSQFSWLDYWGQGTLVTVSS
VL: B1 VL with A30S, K31S, D33Y, T51G, D92S, Y93S, Y95F
notes: Soluble Fab-His
Consider B2, for which the “Fab Binding” value in assay [1] is 2e+06 relative chemiluminescence units. Also, in assay [2], the fold above background was at least 6 fold.

B3: Fab F85 (VH H58, VL L79) (Fab, V domains shown)
VH: QVQLVQSGAEVKKPGSSVKVSCKASGGTFSSYAISWVRQAPGQGLEWMGGIIPIFGTANYAQKFQGRVTITADESTSTAYMELSSLRSEDTAVYYCARDLYGIDIYYALDYWGQGTLVTVSS
VL: B1 VL with A30S, K31S, D33Y, T51G, D92S, Y93N, G94T, Y95L
notes: Soluble Fab-His
In the case of B3, the “Fab Binding” value in assay [1] is 1.7e+06 relative chemiluminescence units. For the same molecule, the fold above background in assay [2] was at least 6 fold.

B4: Fab F130 (VH H129, VL L113) (Fab, V domains shown)
VH: QVQLVQSGAEVKKPGSSVKVSCKASGGTFSSYAISWVRQAPGQGLEWMGGIIPIFGTANYAQKFQGRVTITADESTSTAYMELSSLRSEDTAVYYCARDHGYAYYSAFDYWGQGTLVTVSS
VL: B1 VL with A30S, K31S, D33Y, T51G, D92S, Y93S, G94R, Y95D, L97W
notes: Soluble Fab-His
In the case of B4, the “Fab Binding” value in assay [1] was 2.2e+06 relative chemiluminescence units. In assay [2], the fold above background is at least 6 fold.

B5: Fab F126 (VH H123, VL L110) (Fab, V domains shown)
VH: QVQLVQSGAEVKKPGSSVKVSCKASGGTFSSYAISWVRQAPGQGLEWMGGIIPIFGTANYAQKFQGRVTITADESTSTAYMELSSLRSEDTAVYYCARDRYYFTVLDYWGQGTLVTVSS
VL: B1 VL with A30S, K31S, D33Y, T51G, D92A, Y93T, G94A, Y95F
notes: Soluble Fab-His; converted to mAb B12
In the case of B5, in assay [1], the “Fab Binding” value is 2.4e+06 relative chemiluminescence units. For the same molecule, in assay [2], the fold above background is at least 6 fold.

B6: Fab F90 (VH H83, VL L83) (Fab, V domains shown)
VH: B1 VH with G33A, D100E, D101A, I105Y, Y106P, H107G
VL: B1 VL with A30S, D33A, T51N, D92S, Y93N, G94K, Y95D
notes: Soluble Fab-His
As for B6, the “Fab Binding” value in assay [1] is 1.7e+06 relative chemiluminescence units. Moreover, in assay [2], the fold above background was at least 6 fold.

B7: Fab F72 (VH H65, VL PH9L1) (Fab, V domains shown)
VH: B4 VH with D99G, H100D, G101A, Y102N, A103S, Y104I, S106P, A107L
VL: not shown
notes: Soluble Fab-His
For B7, the “Fab Binding” value in assay [1] was 1.6e+06 relative chemiluminescence units. Moreover, the fold above background in assay [2] was at least 6 fold.

B8: Fab F122 (VH H119, VL L108) (Fab, V domains shown)
VH: B2 VH with F100G, L101V, S102T, Q103T, F104Y, S105D, W106Y, L107F
VL: B1 VL with A30S, K31S, D33Y, T51G, D92S, Y93S, G94R, L97W
notes: Soluble Fab-His
Turning to B8, in assay [1], the “Fab Binding” value was 1.9e+06 relative chemiluminescence units. For the same molecule, the fold above background in assay [2] was at least 6 fold.

B9: Fab F128 (VH H127, VL L111) (Fab, V domains shown)
VH: B5 VH with T57N, D99G, R100F, Y101V, Y102N, T104S, V105R
VL: B1 VL with A30S, K31S, D33Y, T51G, Y93S, G94A, Y95F, L97W
notes: Soluble Fab-His
Regarding B9, the “Fab Binding” value in assay [1] is 1.8e+06 relative chemiluminescence units. Also, the fold above background in assay [2] was at least 6 fold.

B10: Fab F93 (VH H86, VL L79) (Fab, V domains shown)
VH: B5 VH with R100T, Y101F, Y102W, L106F
VL: B1 VL with A30S, K31S, D33Y, T51G, D92S, Y93N, G94T, Y95L
notes: Soluble Fab-His
For the molecule B10, the “Fab Binding” value in assay [1] was 1.6e+06 relative chemiluminescence units. The fold above background in assay [2] is at least 6 fold.

B11: Fab F68 (VH H62, VL L62) (Fab, V domains shown)
VH: B5 VH with A33G, A58T, R100W, Y101W, Y102V, F103T, T104D, V105I
VL: B1 VL with A30S, K31S, D33Y, T51G, D92S, Y93N, G94T, Y95N
notes: Soluble Fab-His
As to B11, in assay [1], the “Fab Binding” value was 1.8e+06 relative chemiluminescence units. Also, the fold above background in assay [2] is at least 6 fold.

B12: Fab F78 (VH H73, VL L73) (Fab, V domains shown)
VH: B5 VH with D99G, R100T, Y101F, Y102T, F103Y, T104D, V105F
VL: B1 VL with A30S, K31S, D33Y, T51G, D92S, Y93S, G94R, Y95F, L97W
notes: Soluble Fab-His
Consider B12, for which the “Fab Binding” value in assay [1] is 1.9e+06 relative chemiluminescence units. Also, in assay [2], the fold above background is at least 6 fold.

B13: Fab F118 (VH H111, VL L104) (Fab, V domains shown)
VH: B5 VH with A33G, R100D, Y101L, Y102P, F103L, T104G, V105M
VL: B1 VL with A30S, K31S, D33Y, T51G, D92Y, Y93T, G94A, Y95F
notes: Soluble Fab-His; converted to mAb B11
B13: the “Fab Binding” value in assay [1] was 2.6e+06 relative chemiluminescence units. Besides, the fold above background in assay [2] was at least 6 fold.

B14: Fab F63 (VH H55, VL L57) (Fab, V domains shown)
VH: QVQLVQSGAEVKKPGSSVKVSCKASGGTFSSYGISWVRQAPGQGLEWMGGIIPIFGTANYAQKFQGRVTITADESTSTAYMELSSLRSEDTAVYYCARRDGNYLHVDHFDYWGQGTLVTVSS
VL: EIVLTQSPATLSLSPGERATLSCRASQSVASALAWYQQKPGQAPRLLIYKASNRATGIPARFSGSGSGTDFTLTISSLEPEDFAVYYCQQGGNWPWTFGQGTKVEIK
notes: Soluble Fab-His
In the case of B14, in assay [1], the “Fab Binding” value was 980000 relative chemiluminescence units. Besides, the fold above background in assay [2] is at least 6 fold.

B15: Fab F69 (VH H63, VL L63) (Fab, V domains shown)
VH: QVQLVQSGAEVKKPGSSVKVSCKASGGTFSSYAISWVRQAPGQGLEWMGGIIPIFGTANYAQKFQGRVTITADESTSTAYMELSSLRSEDTAVYYCARDDDVNSLASYPLDYWGQGTLVTVSS
VL: B14 VL with A30S, S31K, K50Y, G91Y, G92K, W94A, W96R
notes: Soluble Fab-His
Take B15: in assay [1], the “Fab Binding” value was 2e+06 relative chemiluminescence units. Also, in assay [2], the fold above background was at least 6 fold.

B16: Fab F5 (VH H4, VL L4) (Fab, V domains shown)
VH: EVQLVQSGAEVKKPGESLKISCKGSGYSFTSYWIGWVRQMPGKGLEWMGIIYPGDSDTRYSPSFQGQVTISADKSISTAYLQWSSLKASDTAMYYCARNWSEALYVVFDYWGQGTLVTVSS
VL: B14 VL with S31N, A32F, K50Y, G91Y, G92F, N93S, W94A, W96F
notes: Soluble Fab-His; converted to mAb B1
As to B16, the “Fab Binding” value in assay [1] was 3.8e+06 relative chemiluminescence units. Also, the fold above background in assay [2] was at least 6 fold.

B17: Fab F74 (VH H68, VL L68) (Fab, V domains shown)
VH: B15 VH with D100G, L105V, A106Y, Y108S, P109G
VL: B14 VL with A30N, S31K, A32F, K50F, G91Y, G92N, N93H, W94A, W96F
notes: Soluble Fab-His
For the molecule B17, the “Fab Binding” value in assay [1] was 1.7e+06 relative chemiluminescence units. Also, the fold above background in assay [2] was at least 6 fold.

B18: Fab F33 (VH H24, VL L35) (Fab, V domains shown)
VH: not shown
VL: DIQMTQSPSSLSASVGDRVTITCRASQSIHNWLNWYQQKPGKAPKLLIYAASSLQSGVPSRFSGSGSGTDFTLTISSLQPEDFATYYCQQSYSTPLTFGQGTKVEIK
notes: Soluble Fab-His; converted to mAb B15; the Fab's H24 may differ in FR1
With B18, the “Fab Binding” value in assay [1] was 1.1e+06 relative chemiluminescence units. Moreover, the fold above background in assay [2] was at least 6 fold.

B19: Fab F117 (VH H110, VL L103) (Fab, V domains shown)
VH: B1 VH with G33A, G99A, D101A, E103Q, V104L, I105S, Y106G, H107Y
VL: B18 VL with H30G, N31R, W32S, S91P, Y92F, S93D, T94Y, L96F
notes: Soluble Fab-His
For B19, in assay [1], the “Fab Binding” value was 1.8e+06 relative chemiluminescence units. Moreover, the fold above background in assay [2] was at least 6 fold.

B20: Fab F116 (VH H108, VL L100) (Fab, V domains shown)
VH: B1 VH with G33A, G99S, D101L, E103N, I105S, Y106T, H107V
VL: B18 VL with H30G, N31K, W32V, A50G, S91P, Y92I
notes: Soluble Fab-His
Regarding B20, the “Fab Binding” value in assay [1] was 1.9e+06 relative chemiluminescence units. Further, the fold above background in assay [2] was at least 6 fold.

B21: Fab F67 (VH H60, VL L61) (Fab, V domains shown)
VH: QVQLVQSGAEVKKPGSSVKVSCKASGGTFSSYAISWVRQAPGQGLEWMGGIIPIFGTANYAQKFQGRVTITADESTSTAYMELSSLRSEDTAVYYCARIARYARGYMHTFDYWGQGTLVTVSS
VL: B18 VL with H30S, N31S, W32Y, S91H, Y92L, T94I, L96I
notes: Soluble Fab-His; converted to mAb B10
As for B21, the “Fab Binding” value in assay [1] is 8.8e+06 relative chemiluminescence units. Further, in assay [2], the fold above background was at least 6 fold.

B22: Fab F16 (VH H10, VL L13) (Fab, V domains shown)
VH: EVQLVQSGAEVKKPGESLKISCKGSGYSFTSYWIGWVRQMPGKGLEWMGIIYPGDSDTRYSPSFQGQVTISADKSISTAYLQWSSLKASDTAMYYCARGLADFWYFDYWGQGTLVTVSS
VL: B18 VL with H30D, N31V
notes: Soluble Fab-His; converted to mAb B2
As for B22, the “Fab Binding” value in assay [1] is 3.9e+06 relative chemiluminescence units. Besides, the fold above background in assay [2] is at least 6 fold.

B23: Fab F54 (VH H44, VL IFWL195) (Fab, V domains shown)
VH: not shown
VL: B18 VL with H30A
notes: Soluble Fab-His; converted to mAb B17; the Fab's H44 may differ in FR1
Consider B23, for which, in assay [1], the “Fab Binding” value is 980000 relative chemiluminescence units. The fold above background in assay [2] was at least 6 fold.

B24: Fab F100 (VH H93, VL PH9L1) (Fab, V domains shown)
VH: B5 VH with T57N, A58T, D99H, R100Y, Y101L, Y102P, F103D, T104A, V105T
VL: not shown
notes: Soluble Fab-His
Regarding B24, in assay [1], the “Fab Binding” value is 1.9e+06 relative chemiluminescence units. For the same molecule, the fold above background in assay [2] is at least 6 fold.
